Source: patent US20070185028A1, “Compositions and methods for treatment of protein misfolding and protein aggregation diseases” (priority 2004, published 2007)

What was measured:
[1] = biological target: Human γD crystallin (human) (UniProt P07320); experiment: cell-based or functional assay
beta amyloid = beta amyloid (UniProt P05067); experiment: cell-based or functional assay

Chain of Human γD crystallin (human) (P07320 2-174 limits assumed): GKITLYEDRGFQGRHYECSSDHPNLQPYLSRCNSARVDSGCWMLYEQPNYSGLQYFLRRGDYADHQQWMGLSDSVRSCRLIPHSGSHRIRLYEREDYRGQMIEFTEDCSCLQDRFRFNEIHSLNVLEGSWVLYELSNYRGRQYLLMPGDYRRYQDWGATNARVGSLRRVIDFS

Δfluorescence (γD crystallin), Thioflavin T, 72 h at 50° C (no chaperone: 888,803,840) [1]: 1.08e+09 | Δfluorescence (Aβ), Thioflavin T, 72 h at 50° C (no chaperone: 1,324,974,048) (beta amyloid): 3.18e+08
Substance: human αB crystallin (from UniProt P02511 1-175)
